Results reported in US20200262877A1, “ION CHANNEL-BINDING PEPTIDES AND METHODS OF USE THEREOF” (priority 2017, published 2020).

Legend:
5HT3a = target: T1, 5HT3a (Homo sapiens, UniProt P46098); experiment: Ion channel panel (IonWorks Barracuda): 5HT3a; assay type: cell-based
T1 construct: host or cells: HEK293 or CHO
T1 sequence (P46098 whole entry, looked up): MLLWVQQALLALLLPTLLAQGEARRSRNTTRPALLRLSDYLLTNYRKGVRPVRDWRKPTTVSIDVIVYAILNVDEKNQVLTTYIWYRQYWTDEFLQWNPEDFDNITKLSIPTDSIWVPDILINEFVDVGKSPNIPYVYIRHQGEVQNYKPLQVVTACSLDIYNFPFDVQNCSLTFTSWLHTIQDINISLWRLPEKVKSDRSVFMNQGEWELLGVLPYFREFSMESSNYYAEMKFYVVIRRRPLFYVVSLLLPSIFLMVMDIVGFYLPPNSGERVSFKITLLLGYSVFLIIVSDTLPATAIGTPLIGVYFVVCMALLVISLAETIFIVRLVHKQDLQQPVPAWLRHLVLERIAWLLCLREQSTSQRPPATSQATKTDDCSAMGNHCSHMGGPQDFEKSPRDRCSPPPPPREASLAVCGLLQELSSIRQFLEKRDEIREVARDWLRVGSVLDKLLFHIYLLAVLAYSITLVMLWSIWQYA
Procedure: (§1) This example describes a method for assaying ion channel activity in cells.
(§2) Peptides were screened in duplicate at final concentrations of 20 μM and 200 nM, as determined by amino acid analysis, and diluted into HEPES buffered physiological saline (HBPS). HEK293 or CHO cells from the American Type Culture Collection (ATCC) were transfected with the appropriate ion channel before use. HEK293 cells were grown in Dulbecco's Modified Eagle Medium/Nutrient Mixture F-12, and CHO cells were cultured in Ham's F-12 media. All cultures were supplemented with 10% fetal bovine serum, 100 U/ml penicillin G, 100 μg/ml streptomycin sulfate, and the appropriate selection antibiotics. Prior to use, cells were washed twice with Hank's Balanced Salt Solution, and treated with Accutase cell detachment solution (Sigma-Aldrich). Cells were then washed. Peptides and controls were incubated with cells for at least five minutes.
(§3) Percent inhibition was defined as: (1-(Ipeptide/Icontrol))×100%).
(§4) Percent values were calculated using the following formula: % activation=(IPeptide/Icontrol)×100%, where IPeptide is the current produced by co-application a peptide with agonist, and Icontrol refers to the current produced by stimulation in control. Control used for each ion channel is the reference compound matched to a particular channel, as illustrated in TABLE 10 below.

α3β4 = target: T2, α3β4 (Homo sapiens, UniProt P30926+P32297); experiment: Ion channel panel (IonWorks Barracuda): α3β4; assay type: cell-based; details: 100% = no change, <100% = inhibition
T2 construct: host or cells: HEK293 or CHO
Procedure: as §1, §2, §3, §4

α4β2 = target: T3, α4β2 (Homo sapiens, UniProt P17787+P43681); experiment: Ion channel panel (IonWorks Barracuda): α4β2; assay type: cell-based; details: 100% = no change, <100% = inhibition
T3 construct: host or cells: HEK293 or CHO
Procedure: as §1, §2, §3, §4

Cav2.1 = target: T4, Cav2.1 (Homo sapiens, UniProt O00555); experiment: cell-based; details: 100% = no change, <100% = inhibition
T4 construct: host or cells: HEK293 or CHO
Procedure: as §1, §2, §3, §4

Cav2.2 = target: T5, Cav2.2 (Homo sapiens, UniProt Q00975); experiment: cell-based; details: 100% = no change, <100% = inhibition
T5 construct: host or cells: HEK293 or CHO
Procedure: as §1, §2, §3, §4

Kv2.1 = target: T6, Kv2.1 (Homo sapiens, UniProt Q14721); experiment: cell-based; details: 100% = no change, <100% = inhibition
T6 construct: host or cells: HEK293 or CHO
Procedure: as §1, §2, §3, §4

GABA = experiment: Ion channel panel (IonWorks Barracuda): GABA; assay type: cell-based; details: 100% = no change, <100% = inhibition
Procedure: as §1, §2, §3, §4

Nav1.5 = Nav1.5 (Homo sapiens, UniProt Q14524); experiment: in vitro; details: 100% = no change; for Activity of Nav1.5 with peptide, expressed as a percentage of the reference compound: peptide at 0.2 μM; for Activity of Nav1.5 with peptide (percentage of the reference compound): peptide at 20 μM
Procedure: as §1, §2, §3, §4

hERG = hERG (Homo sapiens, UniProt Q12809); experiment: in vitro; details: 100% = no change, <100% = inhibition
Procedure: as §1, §2, §3, §4

Kir2.1 = target: T7, Kir2.1 (Homo sapiens, UniProt P63252); experiment: Ion channel panel (IonWorks Barracuda): Kir2.1; assay type: cell-based; details: 100% = no change, <100% = inhibition
T7 construct: host or cells: HEK293 or CHO
Procedure: as §1, §2, §3, §4

Kv1.1 = target: T8, Kv1.1 (Homo sapiens, UniProt Q09470); experiment: cell-based; assay type: cell-based; details: 100% = no change, <100% = inhibition
T8 construct: host or cells: HEK293 or CHO
Procedure: as §1, §2, §3, §4

Kv1.2 = target: T9, Kv1.2 (Homo sapiens, UniProt P16389); experiment: cell-based; assay type: cell-based; details: 100% = no change, <100% = inhibition
T9 construct: host or cells: HEK293 or CHO
Procedure: as §1, §2, §3, §4

Kv1.3 = target: T10, Kv1.3 (Homo sapiens, UniProt P22001); experiment: cell-based; assay type: cell-based; details: 100% = no change, <100% = inhibition
T10 construct: host or cells: HEK293 or CHO
Procedure: as §1, §2, §3, §4

Nav1.7 = target: T11, Nav1.7 (Homo sapiens, UniProt Q15858); experiment: cell-based; assay type: cell-based; details: 100% = no change; for Activity of Nav1.7 with peptide, expressed as a percentage of the reference compound: peptide at 0.2 μM; for Activity of Nav1.7 with peptide (percentage of the reference compound): peptide at 20 μM
T11 construct: host or cells: HEK293 or CHO
Procedure: as §1
as §2, with “Peptides were screened in duplicate at final concentrations of 20 μM and 200 nM, as determined by amino acid analysis, and diluted into HEPES buffered physiological saline (HBPS).” left out
as §3, §4

NR2A = target: T12, NR2A (Homo sapiens, UniProt Q12879); experiment: Ion channel panel (IonWorks Barracuda): NR2A; assay type: cell-based; details: 100% = no change, <100% = inhibition
T12 construct: host or cells: HEK293 or CHO
Procedure: as §1, §2, §3, §4

NR2B = target: T13, NR2B (Homo sapiens, UniProt Q13224); experiment: Ion channel panel (IonWorks Barracuda): NR2B; assay type: cell-based; details: 100% = no change, <100% = inhibition
T13 construct: host or cells: HEK293 or CHO
Procedure: as §1, §2, §3, §4

TRPA1 = target: T14, TRPA1 (Homo sapiens, UniProt O75762); experiment: Ion channel panel (IonWorks Barracuda): TRPA1; assay type: cell-based; details: 100% = no change, <100% = inhibition
T14 construct: host or cells: HEK293 or CHO
Procedure: as §1, §2, §3, §4

TRPV1 = target: T15, TRPV1 (Homo sapiens, UniProt Q8NER1); experiment: Ion channel panel (IonWorks Barracuda): TRPV1; assay type: cell-based; details: 100% = no change, <100% = inhibition
T15 construct: host or cells: HEK293 or CHO
Procedure: as §1, §2, §3, §4

[1] = first of two Nav1.5 columns (probably TP1)
[2] = second of two Nav1.5 columns (probably TP2)
[3] = first of two Nav1.7 columns (probably TP1)
[4] = second of two Nav1.7 columns (probably TP2)

Nav1.5, sequence (Q14524 whole entry): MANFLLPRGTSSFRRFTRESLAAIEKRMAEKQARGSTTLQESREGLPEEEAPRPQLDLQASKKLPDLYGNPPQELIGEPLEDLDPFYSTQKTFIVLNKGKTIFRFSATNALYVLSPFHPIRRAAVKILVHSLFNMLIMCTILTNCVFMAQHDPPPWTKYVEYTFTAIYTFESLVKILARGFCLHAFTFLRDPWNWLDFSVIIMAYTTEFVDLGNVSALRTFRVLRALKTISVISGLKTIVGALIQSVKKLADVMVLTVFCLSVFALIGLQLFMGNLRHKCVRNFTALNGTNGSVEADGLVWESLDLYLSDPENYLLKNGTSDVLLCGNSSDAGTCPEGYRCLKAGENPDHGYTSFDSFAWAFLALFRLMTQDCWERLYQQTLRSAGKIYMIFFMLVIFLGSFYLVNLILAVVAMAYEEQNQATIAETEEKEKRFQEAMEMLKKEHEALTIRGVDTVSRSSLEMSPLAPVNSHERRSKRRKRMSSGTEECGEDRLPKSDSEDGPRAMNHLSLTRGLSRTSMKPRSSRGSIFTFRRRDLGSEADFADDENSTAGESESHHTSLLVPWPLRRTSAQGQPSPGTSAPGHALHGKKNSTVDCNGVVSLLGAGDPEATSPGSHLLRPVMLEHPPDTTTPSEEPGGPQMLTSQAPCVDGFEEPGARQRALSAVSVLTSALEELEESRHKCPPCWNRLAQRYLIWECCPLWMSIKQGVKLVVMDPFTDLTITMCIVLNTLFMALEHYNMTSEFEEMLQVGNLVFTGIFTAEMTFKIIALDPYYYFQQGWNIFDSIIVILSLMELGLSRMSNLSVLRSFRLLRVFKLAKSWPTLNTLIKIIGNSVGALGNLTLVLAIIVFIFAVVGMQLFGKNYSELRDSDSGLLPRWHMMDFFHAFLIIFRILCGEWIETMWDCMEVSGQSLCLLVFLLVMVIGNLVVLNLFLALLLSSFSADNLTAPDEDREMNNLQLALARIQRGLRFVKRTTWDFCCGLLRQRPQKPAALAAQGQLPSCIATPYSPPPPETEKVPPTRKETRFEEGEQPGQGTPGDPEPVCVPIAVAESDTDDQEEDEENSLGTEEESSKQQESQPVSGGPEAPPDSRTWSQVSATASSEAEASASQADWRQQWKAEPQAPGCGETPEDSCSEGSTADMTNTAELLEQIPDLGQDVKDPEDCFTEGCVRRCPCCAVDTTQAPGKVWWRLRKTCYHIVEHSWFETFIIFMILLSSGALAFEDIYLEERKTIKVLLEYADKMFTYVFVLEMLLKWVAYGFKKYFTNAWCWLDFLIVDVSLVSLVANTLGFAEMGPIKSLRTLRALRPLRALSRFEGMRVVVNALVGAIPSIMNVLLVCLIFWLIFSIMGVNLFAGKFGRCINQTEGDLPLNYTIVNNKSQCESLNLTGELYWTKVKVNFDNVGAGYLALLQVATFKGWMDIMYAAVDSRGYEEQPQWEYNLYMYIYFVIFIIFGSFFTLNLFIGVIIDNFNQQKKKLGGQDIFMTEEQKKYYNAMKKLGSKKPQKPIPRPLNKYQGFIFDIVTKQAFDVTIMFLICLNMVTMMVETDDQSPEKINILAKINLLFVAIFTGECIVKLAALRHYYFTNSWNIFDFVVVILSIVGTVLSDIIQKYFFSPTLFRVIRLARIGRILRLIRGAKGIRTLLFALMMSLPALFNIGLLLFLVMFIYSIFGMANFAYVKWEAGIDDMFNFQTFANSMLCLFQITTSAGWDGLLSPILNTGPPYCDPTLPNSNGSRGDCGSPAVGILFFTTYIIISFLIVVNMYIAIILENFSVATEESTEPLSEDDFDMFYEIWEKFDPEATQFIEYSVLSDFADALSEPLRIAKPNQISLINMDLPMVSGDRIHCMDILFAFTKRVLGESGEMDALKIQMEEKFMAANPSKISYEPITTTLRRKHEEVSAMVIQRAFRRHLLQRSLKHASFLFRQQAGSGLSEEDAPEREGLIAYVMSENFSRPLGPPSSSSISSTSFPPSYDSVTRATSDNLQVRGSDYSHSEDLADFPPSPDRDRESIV
T11 sequence (Q15858 whole entry): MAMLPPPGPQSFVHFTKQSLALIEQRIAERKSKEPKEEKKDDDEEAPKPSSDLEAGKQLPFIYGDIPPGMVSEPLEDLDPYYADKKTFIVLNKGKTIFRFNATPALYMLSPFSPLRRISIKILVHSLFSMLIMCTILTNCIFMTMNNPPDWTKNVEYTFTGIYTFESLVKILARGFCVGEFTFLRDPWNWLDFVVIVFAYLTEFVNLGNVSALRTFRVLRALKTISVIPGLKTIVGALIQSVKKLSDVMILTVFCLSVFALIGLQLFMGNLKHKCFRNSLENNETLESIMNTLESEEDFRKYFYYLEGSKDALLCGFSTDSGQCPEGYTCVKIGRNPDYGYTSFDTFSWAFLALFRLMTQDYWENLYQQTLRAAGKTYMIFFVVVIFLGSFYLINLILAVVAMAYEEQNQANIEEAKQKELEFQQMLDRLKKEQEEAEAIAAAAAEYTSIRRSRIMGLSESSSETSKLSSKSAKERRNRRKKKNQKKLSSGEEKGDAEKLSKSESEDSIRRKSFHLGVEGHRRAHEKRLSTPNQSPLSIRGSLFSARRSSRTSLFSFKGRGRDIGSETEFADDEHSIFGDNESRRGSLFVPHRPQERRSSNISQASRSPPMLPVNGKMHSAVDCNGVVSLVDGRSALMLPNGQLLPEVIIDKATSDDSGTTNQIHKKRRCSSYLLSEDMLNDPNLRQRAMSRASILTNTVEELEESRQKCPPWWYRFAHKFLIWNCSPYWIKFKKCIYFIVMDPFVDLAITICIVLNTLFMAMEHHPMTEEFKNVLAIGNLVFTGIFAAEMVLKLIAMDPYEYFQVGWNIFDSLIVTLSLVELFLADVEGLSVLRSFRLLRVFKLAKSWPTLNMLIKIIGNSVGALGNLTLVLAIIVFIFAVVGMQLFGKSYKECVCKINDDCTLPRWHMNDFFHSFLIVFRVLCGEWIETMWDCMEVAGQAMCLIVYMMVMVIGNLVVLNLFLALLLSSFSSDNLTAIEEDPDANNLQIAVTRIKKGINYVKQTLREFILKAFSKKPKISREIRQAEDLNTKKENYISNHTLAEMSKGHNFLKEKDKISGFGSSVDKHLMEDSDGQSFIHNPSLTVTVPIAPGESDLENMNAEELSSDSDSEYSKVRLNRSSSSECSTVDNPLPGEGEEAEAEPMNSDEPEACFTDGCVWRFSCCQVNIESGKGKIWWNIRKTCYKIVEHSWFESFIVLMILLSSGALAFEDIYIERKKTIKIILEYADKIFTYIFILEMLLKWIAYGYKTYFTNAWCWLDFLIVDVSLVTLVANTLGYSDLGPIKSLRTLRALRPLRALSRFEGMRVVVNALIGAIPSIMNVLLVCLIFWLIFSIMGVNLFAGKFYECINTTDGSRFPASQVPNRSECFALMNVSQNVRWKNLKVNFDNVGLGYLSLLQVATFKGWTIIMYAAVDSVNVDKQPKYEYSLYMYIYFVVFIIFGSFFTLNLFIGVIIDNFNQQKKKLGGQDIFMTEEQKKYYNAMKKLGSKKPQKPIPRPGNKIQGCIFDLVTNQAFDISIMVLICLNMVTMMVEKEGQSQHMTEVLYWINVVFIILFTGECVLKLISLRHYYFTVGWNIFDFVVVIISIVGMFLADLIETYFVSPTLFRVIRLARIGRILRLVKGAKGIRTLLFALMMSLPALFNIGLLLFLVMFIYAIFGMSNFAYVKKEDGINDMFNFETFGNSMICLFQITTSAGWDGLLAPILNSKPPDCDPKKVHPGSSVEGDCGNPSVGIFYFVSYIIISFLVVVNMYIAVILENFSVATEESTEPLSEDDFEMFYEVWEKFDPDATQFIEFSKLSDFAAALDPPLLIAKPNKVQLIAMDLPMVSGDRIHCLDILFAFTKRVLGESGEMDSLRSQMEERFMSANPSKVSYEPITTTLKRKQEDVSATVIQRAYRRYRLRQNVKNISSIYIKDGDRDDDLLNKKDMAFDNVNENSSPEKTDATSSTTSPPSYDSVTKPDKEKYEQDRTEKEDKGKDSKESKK
T3 sequence (P43681 29-627): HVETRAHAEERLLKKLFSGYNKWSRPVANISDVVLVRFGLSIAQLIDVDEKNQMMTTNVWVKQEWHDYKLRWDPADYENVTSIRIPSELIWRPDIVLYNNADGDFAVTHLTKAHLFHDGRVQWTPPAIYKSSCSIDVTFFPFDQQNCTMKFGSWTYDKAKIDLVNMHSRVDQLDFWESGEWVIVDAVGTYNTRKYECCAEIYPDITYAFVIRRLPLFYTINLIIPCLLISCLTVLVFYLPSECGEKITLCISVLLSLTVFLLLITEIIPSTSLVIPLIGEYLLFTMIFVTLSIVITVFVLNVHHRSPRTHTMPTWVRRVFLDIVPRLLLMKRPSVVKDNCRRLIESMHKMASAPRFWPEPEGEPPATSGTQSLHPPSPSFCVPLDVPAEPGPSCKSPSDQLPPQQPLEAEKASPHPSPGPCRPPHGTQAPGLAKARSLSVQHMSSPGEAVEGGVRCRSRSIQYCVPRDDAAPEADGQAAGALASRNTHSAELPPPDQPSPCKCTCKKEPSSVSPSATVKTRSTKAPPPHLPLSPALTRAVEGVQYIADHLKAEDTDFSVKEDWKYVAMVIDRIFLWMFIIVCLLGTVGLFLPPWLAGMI
T3 sequence (P17787 26-502): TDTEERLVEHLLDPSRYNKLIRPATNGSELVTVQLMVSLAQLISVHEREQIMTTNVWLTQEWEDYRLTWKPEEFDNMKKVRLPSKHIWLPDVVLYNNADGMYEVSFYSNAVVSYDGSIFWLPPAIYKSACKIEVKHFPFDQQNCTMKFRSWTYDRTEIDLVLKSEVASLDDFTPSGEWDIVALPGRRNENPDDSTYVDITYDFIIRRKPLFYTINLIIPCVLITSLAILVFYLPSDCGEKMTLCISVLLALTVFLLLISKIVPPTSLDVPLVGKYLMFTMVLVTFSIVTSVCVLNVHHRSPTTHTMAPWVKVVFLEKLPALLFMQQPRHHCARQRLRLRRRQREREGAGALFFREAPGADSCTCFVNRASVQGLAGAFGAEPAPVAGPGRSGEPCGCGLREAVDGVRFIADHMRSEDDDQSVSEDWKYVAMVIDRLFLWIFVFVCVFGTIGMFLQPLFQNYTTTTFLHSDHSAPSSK

4 (GSSCAKPRENCNRMNILCCRGECVCPTFGDCFCYGD) [compound 4]
Activity of 5HT3a with peptide (percentage of the reference compound) (5HT3a): 76%
Activity of 5HT3a with peptide, expressed as a percentage of the reference compound (5HT3a): 103%
Activity of a3b4 with peptide, expressed as a percentage of the reference compound (α3β4; peptide at 0.2 μM): 107%
Activity of a3b4 with peptide (percentage of the reference compound) (α3β4; peptide at 20 μM): 97%
Activity of a4b2 with peptide, expressed as a percentage of the reference compound (α4β2; peptide at 0.2 μM): 86%
Activity of a4b2 with peptide (percentage of the reference compound) (α4β2; peptide at 20 μM): 81%
Activity of Cav2.1 with peptide, expressed as a percentage of the reference compound (Cav2.1; peptide at 0.2 μM): 111%
Activity of Cav2.1 with peptide (percentage of the reference compound) (Cav2.1; peptide at 20 μM): 130%
Activity of Cav2.2 with peptide, expressed as a percentage of the reference compound (Cav2.2; peptide at 0.2 μM): 105%
Activity of Cav2.2 with peptide (percentage of the reference compound) (Cav2.2; peptide at 20 μM): 101%
Activity of Kv2.1 with peptide, expressed as a percentage of the reference compound (Kv2.1; peptide at 0.2 μM): 112%
Activity of Kv2.1 with peptide (percentage of the reference compound) (Kv2.1; peptide at 20 μM): 102%
Activity of GABA with peptide, expressed as a percentage of the reference compound (GABA; peptide at 0.2 μM): 121%
Activity of GABA with peptide (percentage of the reference compound) (GABA; peptide at 20 μM): 108%
Activity of Nav1.5 with peptide, expressed as a percentage of the reference compound (Nav1.5; [1]): 117%
Activity of Nav1.5 with peptide, expressed as a percentage of the reference compound (Nav1.5; [2]): 118%
Activity of Nav1.5 with peptide (percentage of the reference compound) (Nav1.5; [1]): 98%
Activity of Nav1.5 with peptide (percentage of the reference compound) (Nav1.5; [2]): 101%
Activity of hERG with peptide, expressed as a percentage of the reference compound (hERG; peptide at 0.2 μM): 110%
Activity of hERG with peptide (percentage of the reference compound) (hERG; peptide at 20 μM): 80%
Activity of Kir2.1 with peptide, expressed as a percentage of the reference compound (Kir2.1; peptide at 0.2 μM): 109%
Activity of Kir2.1 with peptide (percentage of the reference compound) (Kir2.1; peptide at 20 μM): 90%
Activity of Kv1.1 with peptide, expressed as a percentage of the reference compound (Kv1.1; peptide at 0.2 μM): 106%
Activity of Kv1.1 with peptide (percentage of the reference compound) (Kv1.1; peptide at 20 μM): 91%
Activity of Kv1.2 with peptide, expressed as a percentage of the reference compound (Kv1.2; peptide at 0.2 μM): 90%
Activity of Kv1.2 with peptide (percentage of the reference compound) (Kv1.2; peptide at 20 μM): 45%
Activity of Kv1.3 with peptide, expressed as a percentage of the reference compound (Kv1.3; peptide at 0.2 μM): 109%
Activity of Kv1.3 with peptide (percentage of the reference compound) (Kv1.3; peptide at 20 μM): 87%
Activity of Nav1.7 with peptide, expressed as a percentage of the reference compound (Nav1.7; [3]): 95%
Activity of Nav1.7 with peptide, expressed as a percentage of the reference compound (Nav1.7; [4]): 93%
Activity of Nav1.7 with peptide (percentage of the reference compound) (Nav1.7; [3]): 96%
Activity of Nav1.7 with peptide (percentage of the reference compound) (Nav1.7; [4]): 104%
Activity of NR2A with peptide, expressed as a percentage of the reference compound (NR2A; peptide at 0.2 μM): 106%
Activity of NR2A with peptide (percentage of the reference compound) (NR2A; peptide at 20 μM): 90%
Activity of NR2B with peptide, expressed as a percentage of the reference compound (NR2B; peptide at 0.2 μM): 117%
Activity of NR2B with peptide (percentage of the reference compound) (NR2B; peptide at 20 μM): 93%
Activity of TRPA1 with peptide, expressed as a percentage of the reference compound (TRPA1; peptide at 0.2 μM): 135%
Activity of TRPA1 with peptide (percentage of the reference compound) (TRPA1; peptide at 20 μM): 119%
Activity of TRPV1 with peptide, expressed as a percentage of the reference compound (TRPV1; peptide at 0.2 μM): 110%
Activity of TRPV1 with peptide (percentage of the reference compound) (TRPV1; peptide at 20 μM): 98%
